The test system of the data set is MS2 coat protein. As to the kind of experiment: apparent KD of MS2 coat protein; designed switch direction (-1 OFF switch, 1 ON switch): -1; higher = weaker reporter binding. In a few lines: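 The reported apparent KD is a per-design median over clusters, from curve fits of normalised cluster fluorescence. Protein titrations used SNAP-549-labelled MS2 coat protein, doubled from 0.7 or 1.5 nM to 3 µM, in Tris-HCl pH 7.5 buffer with KCl, MgCl2, BSA, DTT, tRNA and Tween-20, with no input, 200 uM small-molecule ligand, or an oligonucleotide input. The RNA switches were transcribed on Illumina chips by stalled E. coli RNA polymerase.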

Setting [1] is: Eterna round: R95, input ligand: microRNA oligo, concentration not stated.
Setting [2] is: Eterna round: R95, input ligand: FMN 200 uM.
[3] abbreviates: Eterna round: R95, input ligand: none.
The mark [4] stands for this setting: input ligand: microRNA oligo, concentration not stated.

For “UAGAUGGGAGGAUAUACGUAGUUGCAGGUUCGUGUGGUGCUACAUGAGGAUCACCCAUGUAGAAGGCCCGUCUU [JL-ex2-2.30 Mayanne mod] (puzzle: Exclusion 2)”, the “apparent KD of MS2 coat protein” value under setting [1] came out at 0.0134 µM.

Regarding “CAGUACUGAGGAUAUACAUGAGGAUCACCCAUGUGUUCCUGCUAGGAAACUAGCAAGGGUAGAAGGCAGUACUG [Salish 065 m4] (Eterna round: R97, puzzle: Exclusion 3)”, the “apparent KD of MS2 coat protein” value turned out to be 0.132 µM (input ligand: FMN 200 uM) and 0.0164 µM (input ligand: none).

In the case of “CUUUUGUGAGGAUAUCAGUAGUAAAAAAAUAAUAUUACUACUGAGAAGGCACAUGAGGAUCACCCAUGUUCCUC [salish99_ex4_r3_024] (puzzle: Exclusion 4)”, the “apparent KD of MS2 coat protein” value under setting [1] amounted to 0.0384 µM.

With “GGCAUGCAAGGAUAUACUUGAAGUGAUGUUCGAUAAAGUCUACUUGAGGAUCACCCAAGUAGAAGGUGCAUGCC [Exclusion 2 (Mod5.1 JL EX2 4.74 Vienna UCT mod of Mamaed)] (Eterna round: R97, puzzle: Exclusion 2)”, the “apparent KD of MS2 coat protein” value was 0.108 µM (input ligand: FMN 200 uM) and 0.198 µM (input ligand: none).

As for “UGCCGAAGAGGAUAUACAUUGAAUUUGAUUCAUGUAAAACUACAUGAGGAUCACCCAUGUAGAAGGCUUUGGCU [Mat - Exclusion 2 - JL Mod - D61] (Eterna round: R97, puzzle: Exclusion 2)”, the “apparent KD of MS2 coat protein” value by setting is: (input ligand: FMN 200 uM) 0.0342 µM; (input ligand: none) 0.0153 µM.

With “AUAAUUUAAGUGAGGAUAUACCUAUGGAAACAUAGGUAGAAGGCACAUGAGGAUCACCCAUGUUCCUAUACAAA [Fiskers BMX 4 - 1] (puzzle: Brourd's mod of Exclusion 4)”, the “apparent KD of MS2 coat protein” value under setting [2] came to 0.0165 µM, the “apparent KD of MS2 coat protein” value under setting [1] was 0.0127 µM and the “apparent KD of MS2 coat protein” value under setting [3] worked out at 0.00908 µM.

Turning to “AAUAAUGAUAAGGAUAUUACUAGCGAUAGCUAGUGAGAAGGUAUCACAUGAGGAUCACCCAUGUGUUCCAAUAA [Ex6/6-B4] (Eterna round: R97, puzzle: Exclusion 6)”, the “apparent KD of MS2 coat protein” value runs as follows: (input ligand: FMN 200 uM) 0.0701 µM; (input ligand: none) 0.0173 µM.

Regarding “GCAGAAAGUGUAGGAUAUCUAAUAAAGCGGAAACGCAAGACAUGAGGAUCACCCAUGUGUCCGGAAGAGAAGGGCAAAAGCUGC [EXNG2 V2 c] (Eterna round: R96, puzzle: Exclusion NG 2)”, the “apparent KD of MS2 coat protein” value was 0.0266 µM (input ligand: FMN 200 uM), 0.0227 µM under setting [4] and 0.0382 µM (input ligand: none).

Regarding “UUGCUCCCUUAGUACUCUACAAGUUUUUUGUUCGUUUUAACAUGAGGAUCACCCAUGUCUAGUGGAUCUGAUCGGGU [JL ViennaUCT Isreen mod 5] (puzzle: Sensor v3, turn-off variant 2)”, the “apparent KD of MS2 coat protein” value is, setting by setting: under setting [2], 0.172 µM; under setting [1], 0.336 µM; under setting [3], 0.178 µM.

Consider “AAAACACAUGAGGAUCACCCAUGUGAGGAUAUGUUCAUUGUGAGCAAACUUAUGAUGAACAGAAGGCACAUAAA [JR_Exclusion1_Sub017] (puzzle: Exclusion 1)”, for which, under setting [1], the “apparent KD of MS2 coat protein” value worked out at 0.0389 µM.

Consider “AAGAAGAAGUAAGGAUAUGAAGAUCUGGUGGUGACAUGAGGAUCACCCAUGUGAAAACAAUAAGAUCAGAAGGUAUAAGAAGAA [AK ExNG2-3.1] (Eterna round: R96, puzzle: Exclusion NG 2)”, for which the “apparent KD of MS2 coat protein” value is, setting by setting: (input ligand: FMN 200 uM) 0.081 µM; under setting [4], 0.0704 µM; (input ligand: none) 0.0879 µM.

As to “AUACCAUGCCGCCUAAUAGCUUUUUGCUCGUCUUAUAAAACAUGAGGAUCACCCAUGUAAAACAUGUGGCGUGACCC [Maridi] (Eterna round: R96, puzzle: Sensor v3, turn-off variant 2)”, the “apparent KD of MS2 coat protein” value reads like this: (input ligand: FMN 200 uM) 0.422 µM; under setting [4], 0.0529 µM; (input ligand: none) 0.329 µM.

For the sequence “UUCCGACAUGAGGAUCACCCAUGUAAGGAUAUGCACUAGAGGACAAACCCUCUUAACGGCAGAAGGUGCAGGGA [Solaleisra] (Eterna round: R97, puzzle: Exclusion 1)”, the “apparent KD of MS2 coat protein” value by setting is: (input ligand: FMN 200 uM) 0.0409 µM; (input ligand: none) 0.018 µM.

Turning to “GCUUGAGCAGGAUAUACAAUGAGCUUGAGAAAUCGAGUUCGACAUGAGGAUCACCCAUGUAGAAGGGUUCGAGU [-27.3, -25 kcal, A 31% 1 and 1bis] (Eterna round: R97, puzzle: Exclusion 2)”, the “apparent KD of MS2 coat protein” value by setting is: (input ligand: FMN 200 uM) 0.0384 µM; (input ligand: none) 0.0243 µM.

On to “CUAUUUUUCGCAGGAUAUGCAUCUCCUUUAUUAGCAGAAGGGCGUUAAACAUGAGGAUCACCCAUGUAUUGUGGUGCUUUUUUC [JR_ExcNG1_Sub059] (Eterna round: R96, puzzle: Exclusion NG 1)”, for which the “apparent KD of MS2 coat protein” value (input ligand: FMN 200 uM) is 0.214 µM, the “apparent KD of MS2 coat protein” value under setting [4] was determined as 0.0543 µM and the “apparent KD of MS2 coat protein” value (input ligand: none) is 0.0579 µM.

Regarding “AGCUGUGGCCGAGGAUAUCUAACAAUCCCAACCGAAAUAUAAUCGGACAUGAGGAUCACCCAUGUAGAGAAGGCGGUCUCAGCA [Eli eng2 - 073] (Eterna round: R96, puzzle: Exclusion NG 2)”, the “apparent KD of MS2 coat protein” value under setting [4] was determined as 0.137 µM.

As to “CUUUUGUGAGGAUAUUAGUAGUAAAUAAAUAUAAUUACUACUGAGAAGGCACAUGAGGAUCACCCAUGUUCCUC [salish99_ex4_r3_058] (puzzle: Exclusion 4)”, the “apparent KD of MS2 coat protein” value under setting [1] is 0.0355 µM.

Turning to “GAUCUGACAGGAUAUACAUGAGGAUCACCCAUGUACGAGCUAGCGAAAGCUAGCUCAGGUAGAAGGGUCAGAUC [Ex3 dot plot directed v5] (puzzle: Exclusion 3)”, the “apparent KD of MS2 coat protein” value under setting [1] amounted to 0.0116 µM.

Consider “AGCAUGUGAGGAUAUGCGAAGGGAAGGAGAGGGAAAGAGAAGCAGAAGGCACAUGAGGAUCACCCAUGUAAGGG [AK-MS2ROC-r4-exclusion4-8.1] (Eterna round: R97, puzzle: Exclusion 4)”, for which the “apparent KD of MS2 coat protein” value by setting is: (input ligand: FMN 200 uM) 0.0639 µM; (input ligand: none) 0.969 µM.

For “UUAUUAUAUGUAGGAUAUGCGUAUUAUUGUUAUGCAGAAGGACAUGAGGAUCACCCAUGUAUAUUAUUGUUAUAUAUUAUAUAU [Title] (Eterna round: R96, puzzle: Exclusion NG 1)”, the “apparent KD of MS2 coat protein” value by setting is: (input ligand: FMN 200 uM) 0.0502 µM; under setting [4], 0.0193 µM; (input ligand: none) 0.0293 µM.

Take “GUGGGUUACAUGAGGAUCACCCAUGUAUAGUGGGAAAAAAUAUAGGAUAUAAUAUAAAAAUUAUAUUAGAAGGAUAGAGACUAG [AK ExNG3-1] (Eterna round: R96, puzzle: Exclusion NG 3)”: the “apparent KD of MS2 coat protein” value was 0.419 µM (input ligand: FMN 200 uM), 0.216 µM under setting [4] and 0.418 µM (input ligand: none).

For the sequence “ACUAGGCGAGGAUAUACAUGCUUAACGCAGGAAAAGCUGCGACAUGAGGAUCACCCAUGUAGAAGGCGCAAAUA [Xege] (Eterna round: R96, puzzle: Exclusion 2)”, the “apparent KD of MS2 coat protein” value reads like this: (input ligand: FMN 200 uM) 0.0781 µM; under setting [4], 0.0146 µM; (input ligand: none) 0.02 µM.

Consider “UAUUAUCAAGCUAGAUCCCACAUGAGGAUCACCCAUGUGCUCGUCUUAUUUCCGGAAUUAUUGGGCUCUCGUCUUUU [JR_STOV1_Sub092] (Eterna round: R97, puzzle: Sensor, turn-off variant 1)”, for which the “apparent KD of MS2 coat protein” value is, setting by setting: (input ligand: FMN 200 uM) 0.235 µM; (input ligand: none) 0.238 µM.

On to “UGUUUAUAUGAAGGAUAUACUUAACAUGAGGAUCACCCAUGUGGUGUUGUGAGUGAGUGAGUUUAGUAGAAGGUCAAUGAUUUU [JMF's solution 75] (Eterna round: R96, puzzle: Exclusion NG 2)”, for which the “apparent KD of MS2 coat protein” value (input ligand: FMN 200 uM) is 1.03 µM, the “apparent KD of MS2 coat protein” value under setting [4] amounted to 0.2 µM and the “apparent KD of MS2 coat protein” value (input ligand: none) was 0.333 µM.

For the sequence “ACAUGUUGCGCAGGAUAUGGGACACAUGAGGAUCACCCAUGUGGUUACAUGUCUUACCAAGCGUCCCAGAAGGGUGUGAACAUG [Ex NG2 #32] (Eterna round: R96, puzzle: Exclusion NG 2)”, the “apparent KD of MS2 coat protein” value is, setting by setting: (input ligand: FMN 200 uM) 0.026 µM; under setting [4], 0.0165 µM; (input ligand: none) 0.0203 µM.

As for “AGUCGUAGACAGGAUAUGCGGCUAAUAAAUAAUGCAGAAGGGUCUACUUGAGGAUCACCCAAGUGGGCGGUCUG [jl-ex6-4.23 ViennaUCT mod] (Eterna round: R97, puzzle: Exclusion 6)”, the “apparent KD of MS2 coat protein” value (input ligand: FMN 200 uM) came to 0.0703 µM and the “apparent KD of MS2 coat protein” value (input ligand: none) is 0.0173 µM.

“GGGCCCGGAGGAUAUACAUGAGGAUCACCCAUGUAUUUGGGCCCUAUUGGGCCCGGGUGUAGAAGGCCGGGCCC [-42.1, -39.5 kcal, A 19%, 5abis,0] (Eterna round: R97, puzzle: Exclusion 3)”: the “apparent KD of MS2 coat protein” value is, setting by setting: (input ligand: FMN 200 uM) 0.0173 µM; (input ligand: none) 0.0146 µM.

In the case of “UAUGAGCUAGGAUAUGCUUUGGGCUCGCUUUCCUUCGAUAAACUUGAGGAUCACCCAAGUAGAAGGAGCUUGUA [Mod 32 - Jieux - Exclusion 2] (Eterna round: R97, puzzle: Exclusion 2)”, the “apparent KD of MS2 coat protein” value was 0.0365 µM (input ligand: FMN 200 uM) and 0.0158 µM (input ligand: none).

As to “AGCCUGCAAGUAAGGAUAUGAAGUUAAAAGAACGGUCAGAAGGUACUUGAGGAUCACCCAAGUACGGGAGCGUG [Teuscema] (Eterna round: R97, puzzle: Brourd's mod of Exclusion 4)”, the “apparent KD of MS2 coat protein” value turned out to be 0.041 µM (input ligand: FMN 200 uM) and 0.0163 µM (input ligand: none).

“GAUACACAUGAGGAUCACCCAUGUUAGGAUAUUAGCGGGAAAGCUGUCAAAACGCCGAUGAGAAGGAACAGGAG [Excls1-IX] (puzzle: Exclusion 1)”: the “apparent KD of MS2 coat protein” value under setting [1] was found to be 0.0319 µM.

On to “UGUUGGCGAGGAUAUACAUGAGGAUCACCCAUGUGAGAGAAAAAAGUGAGGAAGAAAAGUAGAAGGCGCUGACA [salish99_ex3_r3_045] (puzzle: Exclusion 3)”, for which the “apparent KD of MS2 coat protein” value reads like this: under setting [2], 0.371 µM; under setting [1], 0.0425 µM; under setting [3], 0.0484 µM.

Source of the values: the supplement of paper PMC9170038.
